Results taken from article PMC2148200.

Legend:
[1] = target: TGF-β1; assay: ELISA
[2] = target: human recombinant BMP-2 (human) (UniProt P12643); assay: ELISA
human recombinant BMP-2 (human), sequence (P12643 283-396): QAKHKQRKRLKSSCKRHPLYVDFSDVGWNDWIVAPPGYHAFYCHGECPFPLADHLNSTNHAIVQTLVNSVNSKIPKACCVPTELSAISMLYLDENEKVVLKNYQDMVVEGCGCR

Kd [1]: 7.65 nM
Kd [2]: 5.23 nM
Substance: recombinant human type IIA procollagen NH2-propeptide (rhIIA-GST, exon 2-GST fusion protein) (domain or fragment)
